B1: C1_IPN92H0033-SG4GK/IPN93L0024-SK1 (antibody, human IgG4 S228P, kappa)
heavy: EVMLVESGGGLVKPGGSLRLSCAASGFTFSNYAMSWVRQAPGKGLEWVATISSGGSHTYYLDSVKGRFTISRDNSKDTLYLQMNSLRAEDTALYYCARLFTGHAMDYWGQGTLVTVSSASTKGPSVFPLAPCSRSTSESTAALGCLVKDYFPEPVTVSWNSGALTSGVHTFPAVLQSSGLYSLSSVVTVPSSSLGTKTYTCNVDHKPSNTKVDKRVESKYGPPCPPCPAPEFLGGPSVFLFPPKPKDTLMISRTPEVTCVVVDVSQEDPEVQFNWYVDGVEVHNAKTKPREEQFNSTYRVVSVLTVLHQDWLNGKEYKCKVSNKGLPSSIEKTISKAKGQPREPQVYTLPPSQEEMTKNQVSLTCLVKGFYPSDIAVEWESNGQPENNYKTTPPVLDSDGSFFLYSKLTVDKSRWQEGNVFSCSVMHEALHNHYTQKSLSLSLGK
light: QIVLTQSPATLSLSPGERATLSCTASSSVSSSYLHWYQQKPGKAPKLWIYSTSNLASGVPSRFSGSGSGTDYTLTISSLQPEDFATYYCHQYYRLHPITFGQGTKLEIKRTVAAPSVFIFPPSDEQLKSGTASVVCLLNNFYPREAKVQWKVDNALQSGNSQESVTEQDSKDSTYSLSSTLTLSKADYEKHKVYACEVTHQGLSSPVTKSFNRGEC
notes: VH Y99H, VL P95H against the parent (Kabat); also called IPN92H0033/IPN93L0024
B2: C1_IPN92H0061-SG4GK/IPN93L0024-SK1 (antibody, human IgG4 S228P, kappa, name in Kabat numbering, V domains shown)
VH: EVMLVESGGGLVKPGGSLRLSCAASGFTKSNYAMSWVRQAPGKGLEWVATISSGGSHTYYLDSVKGRFTISRDNSKDTLYLQMNSLRAEDTALYYCARLFTGHAMDYWGQGTLVTVSS
VL: QIVLTQSPATLSLSPGERATLSCTASSSVSSSYLHWYQQKPGKAPKLWIYSTSNLASGVPSRFSGSGSGTDYTLTISSLQPEDFATYYCHQYYRLHPITFGQGTKLEIKR
notes: Substitutions from IPN009VH2, Kabat numbering; also called IPN92H0061/IPN93L0024
B3: C1_IPN92H0033-SG4GK/IPN93L0072-SK1 (antibody, human IgG4 S228P, kappa, name in Kabat numbering, V domains shown)
VH: B2 VH with K29F
VL: B2 VL with S30K
notes: VL substitutions from IPN009VK3, Kabat numbering; also called IPN92H0033/IPN93L0072
B4: C1_IPN92H0080-SG4GK/IPN93L0024-SK1 (antibody, human IgG4 S228P, kappa, name in Kabat numbering, V domains shown)
VH: B2 VH with K29F, Y32R
VL: B2 VL
notes: Substitutions from IPN009VH2, Kabat numbering; also called IPN92H0080/IPN93L0024
B5: C1_IPN92H0033-SG4GK/IPN93L0090-SK1 (antibody, human IgG4 S228P, kappa, name in Kabat numbering, V domains shown)
VH: B2 VH with K29F
VL: B2 VL with Y33K
notes: VL substitutions from IPN009VK3, Kabat numbering; also called IPN92H0033/IPN93L0090
B6: C1_IPN92H0079-SG4GK/IPN93L0024-SK1 (antibody, human IgG4 S228P, kappa, name in Kabat numbering, V domains shown)
VH: B2 VH with K29F, Y32K
VL: B2 VL
notes: Substitutions from IPN009VH2, Kabat numbering; also called IPN92H0079/IPN93L0024
B7: C1_IPN92H0117-SG4GK/IPN93L0024-SK1 (antibody, human IgG4 S228P, kappa, name in Kabat numbering, V domains shown)
VH: B2 VH with K29F, S53Q
VL: B2 VL
notes: Substitutions from IPN009VH2, Kabat numbering; also called IPN92H0117/IPN93L0024
B8: C1_IPN92H0091-SG4GK/IPN93L0024-SK1 (antibody, human IgG4 S228P, kappa, name in Kabat numbering, V domains shown)
VH: B2 VH with K29F, M34K
VL: B2 VL
notes: Substitutions from IPN009VH2, Kabat numbering; also called IPN92H0091/IPN93L0024
B9: C1_IPN92H0144-SG4GK/IPN93L0024-SK1 (antibody, human IgG4 S228P, kappa, name in Kabat numbering, V domains shown)
VH: B2 VH with K29F, H57K
VL: B2 VL
notes: Substitutions from IPN009VH2, Kabat numbering; also called IPN92H0144/IPN93L0024
B10: C1_IPN92H0281-SG4GK/IPN93L0091-SK1 (antibody, human IgG4 S228P, kappa, name in Kabat numbering, V domains shown)
VH: B2 VH with K29F, H57K, Y60E, K65D, G66E, G102K
VL: B2 VL with Y33R
notes: also called IPN92H0281/IPN93L0091
B11: C1_IPN92H0286-SG4GK/IPN93L0205-SK1 (antibody, human IgG4 S228P, kappa, name in Kabat numbering)
heavy: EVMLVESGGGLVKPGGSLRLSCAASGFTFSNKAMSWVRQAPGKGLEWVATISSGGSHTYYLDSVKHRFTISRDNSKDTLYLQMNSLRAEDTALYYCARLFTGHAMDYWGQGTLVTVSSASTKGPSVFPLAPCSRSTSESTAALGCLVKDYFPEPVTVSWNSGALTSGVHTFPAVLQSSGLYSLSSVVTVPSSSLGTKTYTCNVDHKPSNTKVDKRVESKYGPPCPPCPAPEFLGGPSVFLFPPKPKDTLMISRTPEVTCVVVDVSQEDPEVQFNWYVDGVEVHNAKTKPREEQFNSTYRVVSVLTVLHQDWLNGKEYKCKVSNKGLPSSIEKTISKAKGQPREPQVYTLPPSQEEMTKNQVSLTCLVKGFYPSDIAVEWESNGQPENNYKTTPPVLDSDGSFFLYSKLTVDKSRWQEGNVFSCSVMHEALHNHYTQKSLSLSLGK
light: B1 light with Y33R, Y93H, L95H, H96P
notes: also called IPN92H0286/IPN93L0205
B12: C1_IPN92H0288-SG4GK/IPN93L0212-SK1 (antibody, human IgG4 S228P, kappa, name in Kabat numbering, V domains shown)
VH: B2 VH with K29F, Y60E, K65D, G102K
VL: B2 VL with S28E, S31E, Y33R
notes: VH = IPN009VH2 with Y59E/K64D/G98K/Y99H (Kabat); also called IPN92H0288/IPN93L0212
B13: C1_IPN92H0282-SG4GK/IPN93L0091-SK1 (antibody, human IgG4 S228P, kappa, name in Kabat numbering, V domains shown)
VH: B2 VH with K29F, Y60E, K65D, G66E, G102K
VL: B2 VL with Y33R
notes: also called IPN92H0282/IPN93L0091
B14: C1_IPN92H0282-SG4GK/IPN93L0024-SK1 (antibody, human IgG4 S228P, kappa, name in Kabat numbering, V domains shown)
VH: B2 VH with K29F, Y60E, K65D, G66E, G102K
VL: B2 VL
notes: also called IPN92H0282/IPN93L0024

This note sets out measurements from patent publication US20210032365A1 (Chugai, published 2021).

Residue numbers refer to the chain shown, from its start. Names and notes keep the numbering of the source.

The target in the first test is T1, human C1s (human, UniProt P09871 16-688).
T1 construct: Analyte in the Biacore assays; also called hC1s; serum-derived human C1s (CompTech)
T1 sequence: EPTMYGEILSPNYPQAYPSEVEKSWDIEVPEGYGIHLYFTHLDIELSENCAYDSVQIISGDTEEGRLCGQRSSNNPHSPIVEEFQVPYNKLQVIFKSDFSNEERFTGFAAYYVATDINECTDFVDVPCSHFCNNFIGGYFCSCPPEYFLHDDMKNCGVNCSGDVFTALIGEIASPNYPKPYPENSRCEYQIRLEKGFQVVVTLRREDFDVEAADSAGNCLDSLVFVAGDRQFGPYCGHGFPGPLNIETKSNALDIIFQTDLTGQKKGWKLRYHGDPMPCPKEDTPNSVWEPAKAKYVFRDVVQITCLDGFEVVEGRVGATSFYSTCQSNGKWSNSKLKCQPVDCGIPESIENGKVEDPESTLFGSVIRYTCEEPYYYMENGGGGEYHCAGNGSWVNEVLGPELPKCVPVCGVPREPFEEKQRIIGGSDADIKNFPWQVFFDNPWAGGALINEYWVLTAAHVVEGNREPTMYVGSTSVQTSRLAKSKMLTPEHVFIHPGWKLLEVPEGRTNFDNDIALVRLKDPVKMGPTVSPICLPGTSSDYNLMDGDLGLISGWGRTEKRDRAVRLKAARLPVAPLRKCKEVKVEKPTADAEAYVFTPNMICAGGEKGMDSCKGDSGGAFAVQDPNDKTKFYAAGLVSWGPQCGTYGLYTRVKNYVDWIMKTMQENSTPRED
The test is described as follows: SPR; KD at pH 5.8 (1.2 mM Ca) over KD at pH 7.4 (1.2 mM Ca). How it is done: (§1) Each antibody was captured onto the sensor surface by protein A/G. Antibody capture levels were aimed at 200 resonance unit (RU). Serum-derived human C1s (CompTech) or recombinant C1s prepared in EXAMPLE 1 was injected at 50 nM, followed by dissociation. The sensor surface was regenerated in each cycle with 10 mM Glycine-HCl, pH 1.5. […] The ratio of KD 5.8+ to KD 7.4+(“KD 5+/7+”) and that of KD 5.8− to KD 7.4+(“KD 5−/7+”) were calculated. When the KD 5+/7+ or KD 5−/7+ of a variant is larger than that of the parent antibody IPN009VH2-SG4GK/IPN009VK3-SK1, that variant is considered to be “pH”- or “pH and Ca”-dependent, respectively. When binding response in 5(+) buffer and/or in 5(−) buffer of a variant is much lower than that of IPN09VH2/IPN009VK3, that variant is also considered as “pH”- and/or “pH and Ca”-dependent. Therefore, such mutations are effective to generate “pH”- and/or “pH and Ca”-dependent antibody. To further enhance “pH” and/or “pH and Ca” dependency, a combination of histidine mutations was conducted. Antibodies with combinations of histidine mutations were evaluated using Biacore by the method described above.
(§2) C1_1IPN92H0033 (SEQ ID NO: 17)-SG4GK/IPN93L0024 (SEQ ID NO: 18)-SK1 (IPN92H0033/IPN93L0024) was selected for further optimization. Histidine, Lysine, Arginine, aspartic acid, glutamic acid, and glutamine scanning was conducted for CDRs and certain positions of FRs of IPN92H0033/IPN93L0024. Variants with a mutation were generated and purified, and evaluated using Biacore by the method mentioned above. All variants were evaluated using Biacore as mentioned above. Mutations that improved “pH” and/or “pH and Ca” dependency were selected for the combination.
On to B1, for which the “KD 5(+)/7(+)” value stood at 3.

Consider B2, for which the “KD 5(+)/7(+)” value was 1.7.

With B3, the “KD 5(+)/7(+)” value was determined as 6.7.

For the molecule B4, the “KD 5(+)/7(+)” value stood at 5.

As for B5, the “KD 5(+)/7(+)” value is 6.8.

With B6, the “KD 5(+)/7(+)” value came to 5.7.

As for B7, the “KD 5(+)/7(+)” value was determined as 3.8.

Consider B8, for which the “KD 5(+)/7(+)” value stood at 4.5.

Regarding B9, the “KD 5(+)/7(+)” value is 6.4.

Another test has as its target T1, human C1s. Kind of test: SPR (Biacore T200, 37C), Ab captured on protein A/G; pH 5.8, 1.2 mM Ca. How it is done:
as §1, §2
Turning to B1, the koff came out at 0.0045 s⁻¹ and the kon worked out at 519000 M⁻¹ s⁻¹.

In the case of B2, the Kd is 11.9 nM, the koff was determined as 0.022 s⁻¹ and the kon is 1.85e+06 M⁻¹ s⁻¹.

With B3, the Kd came to 9.12 nM, the koff was 0.00529 s⁻¹ and the kon amounted to 530000 M⁻¹ s⁻¹.

Regarding B4, the Kd turned out to be 15.9 nM, the off-rate constant (koff) was 0.0129 s⁻¹ and the on-rate (kon) was determined as 814000 M⁻¹ s⁻¹.

As to B5, the Kd worked out at 9.52 nM, the off-rate constant (koff) was found to be 0.0055 s⁻¹ and the on-rate constant (kon) was 577000 M⁻¹ s⁻¹.

In the case of B6, the Kd was found to be 19.3 nM, the koff was 0.0162 s⁻¹ and the association rate constant (kon) was 838000 M⁻¹ s⁻¹.

On to B7, for which the Kd was 13.1 nM, the off-rate (koff) was 0.00799 s⁻¹ and the on-rate constant (kon) was 610000 M⁻¹ s⁻¹.

As to B8, the Kd was found to be 12 nM, the off-rate constant (koff) is 0.00634 s⁻¹ and the kon was 530000 M⁻¹ s⁻¹.

Take B9: the Kd stood at 23.4 nM, the koff worked out at 0.0265 s⁻¹ and the kon was found to be 1.13e+06 M⁻¹ s⁻¹.

The target in a further test is T1, human C1s. The test is described as follows: SPR; KD at pH 5.8 (3 uM Ca) over KD at pH 7.4 (1.2 mM Ca). The protocol:
as §1, §2
Consider B1, for which the “KD 5(-)/7(+)” value was found to be 1.83.

As for B2, the “KD 5(-)/7(+)” value is 0.79.

With B3, the “KD 5(-)/7(+)” value worked out at 4.18.

For B4, the “KD 5(-)/7(+)” value stood at 2.86.

Take B5: the “KD 5(-)/7(+)” value stood at 5.13.

In the case of B6, the “KD 5(-)/7(+)” value stood at 2.6.

For B7, the “KD 5(-)/7(+)” value was determined as 2.26.

Turning to B8, the “KD 5(-)/7(+)” value was 1.28.

With B9, the “KD 5(-)/7(+)” value was 1.54.

A further test addresses T1, human C1s. The test is described as follows: SPR (Biacore T200, 37C), Ab captured on protein A/G; pH 5.8, 3 uM Ca. How it is done:
as §1, §2
Turning to B2, the Kd was found to be 5.43 nM, the koff was 0.00344 s⁻¹ and the kon is 633000 M⁻¹ s⁻¹.

For B3, the Kd is 5.72 nM, the koff amounted to 0.00553 s⁻¹ and the kon was found to be 967000 M⁻¹ s⁻¹.

As to B4, the Kd was 9.09 nM, the koff came out at 0.00651 s⁻¹ and the kon turned out to be 717000 M⁻¹ s⁻¹.

In the case of B5, the Kd turned out to be 7.18 nM, the koff came out at 0.00427 s⁻¹ and the kon was determined as 595000 M⁻¹ s⁻¹.

Turning to B6, the Kd amounted to 8.75 nM, the koff stood at 0.0052 s⁻¹ and the kon was determined as 594000 M⁻¹ s⁻¹.

B7: the Kd was determined as 7.71 nM, the koff came out at 0.00542 s⁻¹ and the association rate constant (kon) is 703000 M⁻¹ s⁻¹.

Consider B8, for which the Kd stood at 3.43 nM, the koff turned out to be 2.67 s⁻¹ and the kon was found to be 7.8e+08 M⁻¹ s⁻¹.

B9: the Kd was 5.65 nM, the koff turned out to be 0.00317 s⁻¹ and the kon is 562000 M⁻¹ s⁻¹.

For the next test, the target named is T2, human C1s (human, UniProt P09871 16-688).
T2 construct: also called hC1s; serum-derived human C1s (CompTech)
T2 sequence: T1 sequence
The test is described as follows: SPR, Ab captured; pH 7.4, 1.2 mM Ca. The protocol:
as §1, §2
B10: the Kd came out at 4.72 nM, the off-rate (koff) turned out to be 0.00216 s⁻¹ and the kon is 457000 M⁻¹ s⁻¹.

As to B11, the Kd was 1.58 nM, the off-rate (koff) is 0.00156 s⁻¹ and the kon came to 984000 M⁻¹ s⁻¹.

B12: the Kd turned out to be 1.81 nM, the koff was determined as 0.00117 s⁻¹ and the kon was found to be 648000 M⁻¹ s⁻¹.

Regarding B13, the Kd was determined as 1.96 nM, the koff is 0.000924 s⁻¹ and the on-rate (kon) came out at 471000 M⁻¹ s⁻¹.

In the case of B14, the Kd is 1.65 nM, the koff was 0.000632 s⁻¹ and the kon came to 383000 M⁻¹ s⁻¹.
